Experimental data published in paper doi:10.1101/2022.03.04.482944 (bioRxiv, 2022).

Assays:
Assay in all cases: Ligand Surface Binding Assay
[1] = molecular target: T1, BMPR2-Halo (human, UniProt Q13873 27-1038)
T1 sequence (looked up): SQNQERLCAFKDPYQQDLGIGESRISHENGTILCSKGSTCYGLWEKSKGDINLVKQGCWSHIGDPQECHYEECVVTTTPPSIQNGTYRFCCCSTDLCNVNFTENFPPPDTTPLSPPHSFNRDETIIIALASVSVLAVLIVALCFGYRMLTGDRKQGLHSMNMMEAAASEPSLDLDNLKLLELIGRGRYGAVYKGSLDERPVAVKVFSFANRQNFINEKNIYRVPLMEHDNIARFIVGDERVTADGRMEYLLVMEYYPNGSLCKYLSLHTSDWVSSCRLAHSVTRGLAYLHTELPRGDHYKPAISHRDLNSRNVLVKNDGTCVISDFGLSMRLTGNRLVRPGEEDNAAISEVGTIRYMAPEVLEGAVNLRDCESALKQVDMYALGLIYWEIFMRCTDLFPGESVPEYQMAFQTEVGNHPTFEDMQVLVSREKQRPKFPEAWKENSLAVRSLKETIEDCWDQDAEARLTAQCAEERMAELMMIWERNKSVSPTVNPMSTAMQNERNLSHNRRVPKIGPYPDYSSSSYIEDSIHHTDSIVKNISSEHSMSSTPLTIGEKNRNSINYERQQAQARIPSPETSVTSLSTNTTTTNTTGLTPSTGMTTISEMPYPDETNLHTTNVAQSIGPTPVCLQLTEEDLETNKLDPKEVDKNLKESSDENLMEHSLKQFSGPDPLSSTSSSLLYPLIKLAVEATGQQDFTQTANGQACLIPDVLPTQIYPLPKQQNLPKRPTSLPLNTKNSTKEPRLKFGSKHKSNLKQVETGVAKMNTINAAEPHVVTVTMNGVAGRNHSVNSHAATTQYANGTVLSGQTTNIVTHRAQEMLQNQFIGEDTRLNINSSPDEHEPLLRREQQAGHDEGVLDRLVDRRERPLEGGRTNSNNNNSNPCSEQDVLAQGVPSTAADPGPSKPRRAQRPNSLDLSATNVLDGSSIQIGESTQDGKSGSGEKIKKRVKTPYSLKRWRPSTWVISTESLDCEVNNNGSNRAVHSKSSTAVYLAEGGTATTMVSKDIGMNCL

[2] = molecular target: ACVR2B-Halo (human, UniProt Q13705 19-512)
[3] = molecular target: ACVR2A-Halo (human, UniProt P27037 20-513)
Chain of ACVR2A-Halo (P27037 20-513): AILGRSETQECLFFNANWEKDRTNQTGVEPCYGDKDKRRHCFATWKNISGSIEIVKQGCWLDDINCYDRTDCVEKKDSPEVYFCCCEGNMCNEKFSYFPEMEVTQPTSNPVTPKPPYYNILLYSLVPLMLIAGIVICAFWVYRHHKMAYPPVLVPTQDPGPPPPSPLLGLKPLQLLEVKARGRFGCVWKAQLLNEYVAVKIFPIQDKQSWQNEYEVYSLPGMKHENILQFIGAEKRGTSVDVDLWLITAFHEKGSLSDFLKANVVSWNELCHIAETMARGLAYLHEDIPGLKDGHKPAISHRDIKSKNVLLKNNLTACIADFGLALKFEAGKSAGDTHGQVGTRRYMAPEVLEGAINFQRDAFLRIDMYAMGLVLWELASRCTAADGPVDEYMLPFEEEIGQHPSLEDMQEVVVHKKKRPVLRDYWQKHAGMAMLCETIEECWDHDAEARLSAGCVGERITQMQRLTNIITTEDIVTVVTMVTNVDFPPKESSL

Chain of ACVR2B-Halo (Q13705 19-512): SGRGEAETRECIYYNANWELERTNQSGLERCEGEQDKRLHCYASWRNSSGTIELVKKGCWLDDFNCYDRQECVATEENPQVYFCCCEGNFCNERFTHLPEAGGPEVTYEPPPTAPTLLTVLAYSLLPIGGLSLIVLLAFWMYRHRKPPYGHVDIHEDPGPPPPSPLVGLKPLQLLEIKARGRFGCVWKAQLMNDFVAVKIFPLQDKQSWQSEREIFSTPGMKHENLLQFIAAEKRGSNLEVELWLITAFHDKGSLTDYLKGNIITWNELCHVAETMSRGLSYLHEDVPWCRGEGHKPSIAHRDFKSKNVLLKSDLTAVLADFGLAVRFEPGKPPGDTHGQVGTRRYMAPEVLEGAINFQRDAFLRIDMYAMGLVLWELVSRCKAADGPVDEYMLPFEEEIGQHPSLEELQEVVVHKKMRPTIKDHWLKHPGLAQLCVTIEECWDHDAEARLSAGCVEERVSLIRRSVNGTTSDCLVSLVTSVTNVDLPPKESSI

fold Activin A-Cy5 binding relative to untransfected cells [1]: ~27 fold
fold Activin A-Cy5 binding relative to untransfected cells [2]: ~84 fold
fold Activin A-Cy5 binding relative to untransfected cells [3]: ~29 fold
B1: Activin A-Cy5 (ligand, UniProt P08476 311-426, looked up)
chain: GLECDGKVNICCKKQFFVSFKDIGWNDWIIAPSGYHANYCEGECPSHIAGTSGSSLSFHSTVINHYRMRGHSPFANLKSCCVPTKLRPMSMLYYDDGQNIIKKDIQNMIVEECGCS
modifications: Cy5 label (NHS-activated Cy5, protein:dye ratio 1:2 in the labelling reaction)
